Measured values from patent publication US20120270768.

With prostate specific antigen (PSA) the “Kcat against Mu-HSSKLQ-AMC” value (Ac-GKSQYQ-AMC) was “˜10-fold improvement in the Kcat kinetic parameter”, the Kcat/Km (Ac-GKSQYQ-AMC) was 278 s^-1M^-1 and the “Kcat/Km ratio against Mu-HSSKLQ-AMC” value (Ac-GKSQYQ-AMC) was “Kcat/Km ratios that were 10-fold higher than the Mu-HSSKLQ-AMC test peptide”. For the same substance, the Km (Ac-GKSQYQ-AMC) was 343 µM, the kcat (Ac-GKSQYQ-AMC) was 0.09 s⁻¹ and the Kcat/Km (Ac-GSSKFQ-AMC) was 86 s^-1M^-1. The Km (Ac-GSSKFQ-AMC) was 666 µM, the kcat (Ac-GSSKFQ-AMC) was 0.057 s⁻¹ and the “Kcat against Mu-HSSKLQ-AMC” value (Ac-GSSKYQ-AMC) was “˜10-fold improvement in the Kcat kinetic parameter”. The Kcat/Km (Ac-GSSKYQ-AMC) was 227 s^-1M^-1, the “Kcat/Km ratio against Mu-HSSKLQ-AMC” value (Ac-GSSKYQ-AMC) was “Kcat/Km ratios that were 10-fold higher than the Mu-HSSKLQ-AMC test peptide” and the Km (Ac-GSSKYQ-AMC) was 500 µM. For the same substance, the kcat (Ac-GSSKYQ-AMC) was 0.113 s⁻¹, the “Kcat against Mu-HSSKLQ-AMC” value (Ac-GsAKYQ-AMC) was “˜10-fold improvement in the Kcat kinetic parameter” and the Kcat/Km (Ac-GsAKYQ-AMC) was 218 s^-1M^-1. The “Kcat/Km ratio against Mu-HSSKLQ-AMC” value (Ac-GsAKYQ-AMC) was “Kcat/Km ratios that were 10-fold higher than the Mu-HSSKLQ-AMC test peptide”, the Km (Ac-GsAKYQ-AMC) was 653 µM and the kcat (Ac-GsAKYQ-AMC) was 0.143 s⁻¹. For the same substance, the Kcat/Km (Mu-HSSKLQ-AMC) was 23.6 s^-1M^-1, the Km (Mu-HSSKLQ-AMC) was 470 µM and the kcat (Mu-HSSKLQ-AMC) was 0.011 s⁻¹. The “PSA hydrolysis (release of L12ADT, LC/MS)” value (Mu-HSSKLQ//L12ADT) was “the new prodrug was hydrolyzed dramatically better than the test peptide” and the “PSA hydrolysis (release of L12ADT, LC/MS)” value (Mu-SSKYQ//L12ADT) was “the new prodrug was hydrolyzed dramatically better than the test peptide”.
